From the supplement of paper PMC9233669
This sample holds only a part of the variants without activity.

What was measured:
biotinyl-Phe-oxazolone = assay: self-aminoacylation, catalytic enhancement (BFO) (fold over background); higher = more active; k-Seq, kA / k0A0; sequences stand for … in GGGAAUGGAUCCACAUCUACGAAUUC…UUCACUGCAGACUUGACGAAGCUG
Method in brief: (§1)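 Mutagenized RNA pools (0.43 μM; 21-nt variable region) were treated with 2–1250 μM of each biotinyl-aminoacyl-oxazolone. Conditions were 50 μL HEPES/NaCl/KCl/MgCl2/CaCl2 buffer, 5% acetonitrile, pH 6.9–7.0, room temperature, 90 minutes. Catalytic enhancement, the median kA relative to the uncatalyzed rate, was derived from streptavidin capture, qPCR and Illumina sequencing.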

biotinyl-Ile-oxazolone = assay: self-aminoacylation, catalytic enhancement (BIO) (fold over background); higher = more active; k-Seq, kA / k0A0; sequences stand for … in GGGAAUGGAUCCACAUCUACGAAUUC…UUCACUGCAGACUUGACGAAGCUG
Method in brief: as §1

biotinyl-Met-oxazolone = assay: self-aminoacylation, catalytic enhancement (BMO) (fold over background); higher = more active; k-Seq, kA / k0A0; sequences stand for … in GGGAAUGGAUCCACAUCUACGAAUUC…UUCACUGCAGACUUGACGAAGCUG
Method in brief: as §1

biotinyl-Val-oxazolone = assay: self-aminoacylation, catalytic enhancement (BVO) (fold over background); higher = more active; k-Seq, kA / k0A0; sequences stand for … in GGGAAUGGAUCCACAUCUACGAAUUC…UUCACUGCAGACUUGACGAAGCUG
Method in brief: as §1

biotinyl-Leu-oxazolone = assay: self-aminoacylation, catalytic enhancement (BLO) (fold over background); higher = more active; k-Seq, kA / k0A0; sequences stand for … in GGGAAUGGAUCCACAUCUACGAAUUC…UUCACUGCAGACUUGACGAAGCUG
Method in brief: as §1

biotinyl-Trp-oxazolone = assay: self-aminoacylation, catalytic enhancement (BWO) (fold over background); higher = more active; k-Seq, kA / k0A0; sequences stand for … in GGGAAUGGAUCCACAUCUACGAAUUC…UUCACUGCAGACUUGACGAAGCUG
Method in brief: as §1

Sequence	self-aminoacylation (biotinyl-Phe-oxazolone)	self-aminoacylation (biotinyl-Ile-oxazolone)	self-aminoacylation (biotinyl-Met-oxazolone)	self-aminoacylation (biotinyl-Val-oxazolone)	self-aminoacylation (biotinyl-Leu-oxazolone)	self-aminoacylation (biotinyl-Trp-oxazolone)
AUUACCCUGGUCAUCGGCUGA [Fam2.1 aminoacylation ribozyme variant]	4.87	2.74	1.54	3.04	2.77	2.77
AAGUUCACUAAUAGUCGCAAG [Fam3.1 aminoacylation ribozyme variant]	2.72	1.96	1.37	1.86	1.8	2.23
AUUCACCUAGGUCUUCGGGUC [Fam2.2 aminoacylation ribozyme variant]	3.66	1.65	1.33	1.68	2.37	1.79
AUUACCCUUAUCAUCGAGUGA [Fam2.1 aminoacylation ribozyme variant]	60.8	5.68	14.1	6.51	13.2	16.7
AUUACCCUGGUCUUCCAGUGA [Fam2.1 aminoacylation ribozyme variant]	31.7	3.79	5.48	3.51	5.94	6.46
CUACAUCAAACAAUCGGUCUU [Fam1A.1 aminoacylation ribozyme variant]	1.45	0.69	0.791	0.748	0.615	1.25
AUUACCCUGGUUAUCGAGUAA [Fam2.1 aminoacylation ribozyme variant]	1.44	1.31	1.44	1.24	1.32	1.89
CUGCUUCAAGCAAUCGGUCUG [Fam1A.1 aminoacylation ribozyme variant]	132	1.29	2.13	1.49	2.96	42.8
AUUACCCUGCCCAUCGAGUGA [Fam2.1 aminoacylation ribozyme variant]	38.9	2.94	5.7	3.23	5.53	6.52
AUUCACCUACGUCCUCGGGUG [Fam2.2 aminoacylation ribozyme variant]	33.2	2.7	4.71	2.12	7.17	4.21
AUCACCCUAGUCAUCGAGUGA [Fam2.1 aminoacylation ribozyme variant]	49.7	4.35	8.04	4.27	8.78	7.4
AUUACCCUGGUCACGGAGUGA [Fam2.1 aminoacylation ribozyme variant]	37.5	3.43	7.34	3.92	7.68	8.54
AAGUUUCCUAACAGUCGCAAG [Fam3.1 aminoacylation ribozyme variant]	1.26	1.23	0.884	1.03	0.963	0.58
GCACACUUCAAUCAAUCGGUC [Fam1B.1 aminoacylation ribozyme variant]	34.4	1.73	1.58	1.69	1.98	26.4
AUUUACCGAGGUCAUCGGGUG [Fam2.2 aminoacylation ribozyme variant]	64.7	4.97	8.5	4.5	11.1	6.88
AUUCACCCAUGUCAUCGGGUG [Fam2.2 aminoacylation ribozyme variant]	46.4	3.72	6.58	3.15	7.33	5.22
GUUACCCUGGUCAUCGAGCGA [Fam2.1 aminoacylation ribozyme variant]	5.54	2.84	4.51	3.46	4.14	4.27
AUUACCCUGGUCGACGAGUGA [Fam2.1 aminoacylation ribozyme variant]	26.4	2.86	5.53	3.33	5.32	6.05
CCACUUCCAACAAUCGGUCUG [Fam1A.1 aminoacylation ribozyme variant]	1.13	0.991	1.11	1.11	1.15	1.6
AAGUUUGCUAAAAGUCGCAGG [Fam3.1 aminoacylation ribozyme variant]	1.77	1.26	1.37	1.12	1.07	1.3
CCAAACUUCAAGCCAUCGGUC [Fam1B.1 aminoacylation ribozyme variant]	1.07	1.15	1.28	1.18	1.03	1.01
AGUCAUCUAGGUCAUCGGGUG [Fam2.2 aminoacylation ribozyme variant]	53.9	5.24	7.32	5.47	7.92	9.27
AAGUUCGCUAACAGUCGCAAG [Fam3.1 aminoacylation ribozyme variant]	2.24	1.45	1.36	1.33	1.81	1.06
AAGUUAGCUAAUAGUCUCAAG [Fam3.1 aminoacylation ribozyme variant]	2.11	1.26	1.22	1.27	0.902	1.69
CCACACUACAAGCAAUGGGUC [Fam1B.1 aminoacylation ribozyme variant]	0.762	0.72	0.778	0.842	0.511	0.735
CUUCACCUAGGUAAUCGGGUG [Fam2.2 aminoacylation ribozyme variant]	1.56	1.59	2.65	1.65	2.68	2.7

Sequence	self-aminoacylation (biotinyl-Phe-oxazolone)	self-aminoacylation (biotinyl-Ile-oxazolone)	self-aminoacylation (biotinyl-Met-oxazolone)	self-aminoacylation (biotinyl-Val-oxazolone)	self-aminoacylation (biotinyl-Leu-oxazolone)	self-aminoacylation (biotinyl-Trp-oxazolone)
AUUCAACUAGGUCAACGGGUG [Fam2.2 aminoacylation ribozyme variant]	25.5	2.4	4.31	2.31	4.91	3.38
CUAUUUCAAACAAUCGGGCUG [Fam1A.1 aminoacylation ribozyme variant]	2.05	1.24	1.08	1	0.844	1.88
CUUCACCUAGGUCAUCGUGUG [Fam2.2 aminoacylation ribozyme variant]	3.33	1.21	1.6	1.26	1.39	1.12
AUUCACCAAGGUCAUCGGGUA [Fam2.2 aminoacylation ribozyme variant]	22.5	3.77	2.43	3.04	3.23	4.89
CCAGACUUCAAGCAAUCAGUC [Fam1B.1 aminoacylation ribozyme variant]	12.6	1.04	0.826	0.837	1.03	5.08
AUGUUCGCUAAUAGUCGCAAG [Fam3.1 aminoacylation ribozyme variant]	3.79	1.58	1.65	1.55	1.14	1.67
AAGUUUGCUAAUAGUCCGAAG [Fam3.1 aminoacylation ribozyme variant]	4.75	1.1	1.02	1.02	0.863	1.89
AUUACCCUGGUUAUCGGGUGA [Fam2.1 aminoacylation ribozyme variant]	94.3	5.12	12.8	6.66	13.6	14.8
CUACGUCAAACAAACGGUCUG [Fam1A.1 aminoacylation ribozyme variant]	0.89	1.06	1.08	1.03	1.16	0.904
CCACGGUUCAAGCAAUCGGUC [Fam1B.1 aminoacylation ribozyme variant]	2.64	1.08	1.02	1.22	1.07	2.21
AAGUUUCCUAAUCGUCGCAAG [Fam3.1 aminoacylation ribozyme variant]	1	0.879	0.973	0.893	0.896	0.618
AUUCACUUAGGUCCUCGGGUG [Fam2.2 aminoacylation ribozyme variant]	35.8	3.12	4.58	2.96	6.52	4.66
AUUCACGUAGGUAAUCGGGUG [Fam2.2 aminoacylation ribozyme variant]	23.1	2.91	3.84	3.22	5.06	4.53
GCGUUUGCUAAUAGUCGCAAG [Fam3.1 aminoacylation ribozyme variant]	4.9	2.09	2.34	2.05	2.65	4.24
AUUACCCUGUUCACCGAGUGA [Fam2.1 aminoacylation ribozyme variant]	77.2	4.79	11	5	11.6	12.7
AUUCACCUAGGUCAUCGGUGG [Fam2.2 aminoacylation ribozyme variant]	4.26	1.5	1.97	1.52	1.85	1.81
UUUCACCGAGGUCAUCGGGUG [Fam2.2 aminoacylation ribozyme variant]	44.3	4.52	7.19	5.17	6.07	6.08
AUUCACUUAGGUCAUCGGUUG [Fam2.2 aminoacylation ribozyme variant]	0.69	0.87	0.764	0.831	0.901	0.519
AUGCACCUGGGUCAUCGGGUG [Fam2.2 aminoacylation ribozyme variant]	21.2	3.37	4.33	3.8	3.18	3.63
CUACUUCGAACAAUCGGCCUG [Fam1A.1 aminoacylation ribozyme variant]	4.78	1.6	1.71	1.54	1.36	1.84
CCACGUCAAACAAUCGGUCUG [Fam1A.1 aminoacylation ribozyme variant]	2.2	1.89	1.75	1.95	1.36	2.31
CCAUACUUCAAGCAAUCCGUC [Fam1B.1 aminoacylation ribozyme variant]	0.96	1.15	0.829	1.12	0.949	0.766
CUACUUCGAACAAUCGUUCUG [Fam1A.1 aminoacylation ribozyme variant]	0.268	0.432	0.453	0.49	0.457	0.368
UUUCACCUAGCUCAUCGGGUG [Fam2.2 aminoacylation ribozyme variant]	1.68	2.03	1.77	2.73	2.24	2.5
AUUUACCUAGGUUAUCGGGUG [Fam2.2 aminoacylation ribozyme variant]	23.2	2.29	3.44	2.4	3.48	3.72
